Data from the supplement of paper PMC10126150.
± gives the standard deviation of the averaged measurements.

Each sequence was assayed on ATP (assay: switch fluorescence ratio, 500 uM ATP over buffer (Cy3 cluster intensity, sum of 5 cycles each) (fold (ratio)); higher = stronger signal-on switching upon ATP binding; sequences stand for … in TCGTCGGCAGCGTCAGATGTGTATAAGAGACAGTTTTTTTTTTTTTTTTTTTTTTTTT…TC). Conditions: aptamer strand: ATP DNA aptamer (quencher-CACCTGGGGGAGTATTGCGGAGGAAGG + anchor), 100 nM annealed; ATP concentration: 500 uM.
In short: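 Clusters carrying Cy3-labelled switching strands on a modified Illumina MiSeq flow-cell were annealed to 100 nM quencher-labelled ATP aptamer and imaged in selection buffer. They were imaged again after 15 min with 500 uM ATP at 22 °C, over five buffer/ATP cycles with NaOH stripping and re-annealing in between. For each cluster, the fluorescence ratio is the summed Cy3 intensity of the target cycles divided by that of the buffer cycles, averaged per switch-domain sequence. Clusters outside 100-1000 RFU were left out.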
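Further: ATP exposure 15 min at 22 °C before imaging.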

Sequence | switch fluorescence ratio
GCAAAGGGGT | 0.996 ± 0.021
GCAAATGGAA | 0.982 ± 0.042
GCAACGGCGG | 1.01 ± 0.054
GCAACGGGAG | 0.988 ± 0.035
GCAACTGATC | 1.19 ± 0.031
GCAAGGCGGA | 1.03 ± 0.0091
GCAATCGGAG | 1.27 ± 0.025
GCAATGGTGG | 1.04 ± 0.035
GCAATTGCCT | 0.989 ± 0.029
GCACCACCGT | 1.15 ± 0.014
GCACCATCCA | 1.03 ± 0.013
GCACCTGGAT | 1.01 ± 0.027
GCACCTGGGC | 0.991 ± 0.039
GCACGAGCCC | 1.316 ± 0.008
GCACGAGGGG | 0.979 ± 0.047
GCACGGACAT | 1.4 ± 0.031
GCACGGTACG | 1 ± 0.031
GCACGGTCGG | 1.009 ± 0.0021
GCACGTATTC | 1.113 ± 0.0047
GCACGTGGTC | 1.04 ± 0.019
GCACGTGTTC | 1.119 ± 0.0096
GCACTAGACT | 1.07 ± 0.029
GCACTCGGGA | 1.03 ± 0.027
GCACTGGTAA | 1.023 ± 0.0071
GCACTTGGTG | 1.02 ± 0.024

Sequence | switch fluorescence ratio
GCACTTTAGC | 1.03 ± 0.018
GCAGACCTAT | 0.989 ± 0.058
GCAGACGTTC | 1.012 ± 0.005
GCAGAGGGTC | 0.9998 ± 0.0066
GCAGAGTGTT | 1.02 ± 0.027
GCAGATTAGC | 1.033 ± 0.0044
GCAGCAAAAG | 1.029 ± 0.0029
GCAGCAATTG | 3.03 ± 0.19
GCAGCACGCA | 1.03 ± 0.032
GCAGCTGGTT | 0.994 ± 0.026
GCAGCTTCGG | 0.984 ± 0.014
GCAGGAAGAC | 3.48 ± 0.81
GCAGGACGAC | 2.38 ± 0.49
GCAGGAGCCT | 1.01 ± 0.011
GCAGGATGGG | 0.98 ± 0.019
GCAGGCCGAG | 1.05 ± 0.037
GCAGGGGAAG | 0.99 ± 0.019
GCAGGGGCTC | 1 ± 0.027
GCAGGGGGTC | 1 ± 0.021
GCAGGGTTCT | 0.9721 ± 0.0021
GCAGGTTTGG | 0.991 ± 0.033
GCAGTAGTGG | 1.2 ± 0.33
GCAGTATCAC | 1.05 ± 0.028
GCAGTATGGT | 0.985 ± 0.016
GCAGTGCGCC | 1.2 ± 0.05

Sequence | switch fluorescence ratio
GCAGTTAAGT | 1 ± 0.037
GCAGTTAGGG | 0.995 ± 0.079
GCAGTTGGTA | 0.989 ± 0.02
GCAGTTGGTG | 0.958 ± 0.043
GCAGTTTTGG | 0.992 ± 0.015
GCATAAAACT | 1.04 ± 0.014
GCATAAACGC | 1.06 ± 0.044
GCATAAAGGA | 0.9684 ± 0.0075
GCATAAGGTT | 0.993 ± 0.031
GCATAGCGCC | 1.04 ± 0.013
GCATAGGGCG | 1.01 ± 0.018
GCATATCTAG | 1.03 ± 0.041
GCATCAATTT | 1.016 ± 0.0012
GCATCGGGGT | 1 ± 0.032
GCATCGTAGA | 1.07 ± 0.015
GCATCTACGG | 1.02 ± 0.019
GCATCTCAGC | 0.991 ± 0.038
GCATGAGCTG | 0.981 ± 0.014
GCATGATGCG | 0.994 ± 0.013
GCATGATGGC | 1.03 ± 0.063
GCATGGAAGG | 1.013 ± 0.0065
GCATGGGGTA | 1.05 ± 0.051
GCATGGTGGC | 1.013 ± 0.0028
GCATGTGGCT | 0.994 ± 0.024
GCATGTGGGT | 0.986 ± 0.017

Sequence | switch fluorescence ratio
GCATGTTGGG | 1.01 ± 0.029
GCATTAAAAT | 0.9578 ± 0.0013
GCATTACCGG | 1.03 ± 0.04
GCATTAGGGC | 1.07 ± 0.14
GCATTATATG | 1 ± 0.03
GCATTATGGG | 1.02 ± 0.034
GCATTATTCA | 1.04 ± 0.014
GCATTGAGGT | 1 ± 0.013
GCATTGCGGC | 0.991 ± 0.019
GCATTGGATA | 1 ± 0.014
GCATTTTGGG | 0.986 ± 0.033
GCATTTTGTT | 0.986 ± 0.019
GCATTTTTAC | 1.19 ± 0.023
GCCAAAAGGG | 1.015 ± 0.008
GCCAAAGGGA | 1.01 ± 0.063
GCCACGAGGG | 1.025 ± 0.0062
GCCACGGAGT | 0.964 ± 0.015
GCCACTTACA | 1.36 ± 0.025
GCCAGACGTG | 0.995 ± 0.017
GCCAGGGGAG | 1.1 ± 0.12
GCCAGGGGTG | 1.47 ± 0.033
GCCAGGGTGG | 1.01 ± 0.039
GCCAGTCTTT | 1 ± 0.012
GCCATATACA | 1.035 ± 0.01
GCCATGGCTT | 1.01 ± 0.0039
